The results in this text go back to US20180289832A1 (MAGENTA THERAPEUTICS, published 2018).

Experiment [1] deals with T1, human CD137 (hCD137) stably over-expressed on Jurkat cells (human, UniProt Q07011 24-255).
T1 construct: also called 4-1BB; TNFRSF9
In words: flow cytometry on Jurkat cells stably over-expressing hCD137; titration of the primary antibody 4 h at 4 °C, secondary anti-mouse AF488, gMFI. As to the method: (§1) Jurkat cells (i.e., an immortalized human T lymphocyte cell line) characterized by stable, over-expression of hCD137 were plated at 20,000 cells/well and stained with a titration of primary murine anti-CD137 antibody BBK2 (BBK2-mIgG1) for 4 hours at 4° C. Secondary anti-mouse AF488 stain, at a constant amount, was added for 30 minutes at 4° C. After washing, plates were run on a flow cytometer and binding of BBK2-mIgG1 (and the negative control, i.e., mIgG1) was determined based on geometric mean fluorescence intensity in the AF488 channel.

For experiment [2], the target named is T1, human CD137 (hCD137) stably …. Briefly: flow cytometry on Jurkat cells over-expressing hCD137; antibody titration 4 h at 4 C, anti-mouse AF488 secondary, geometric MFI. On the procedure: as §1
(In general: Flow cytometry measures light scatter and fluorescence of single cells or particles in a stream.)

For orientation: EC50 means the concentration at which the effect is half-maximal. Low readings indicate an effect from little substance, high ones a need for much substance.

T1 sequence (Q07011 24-255 limits assumed): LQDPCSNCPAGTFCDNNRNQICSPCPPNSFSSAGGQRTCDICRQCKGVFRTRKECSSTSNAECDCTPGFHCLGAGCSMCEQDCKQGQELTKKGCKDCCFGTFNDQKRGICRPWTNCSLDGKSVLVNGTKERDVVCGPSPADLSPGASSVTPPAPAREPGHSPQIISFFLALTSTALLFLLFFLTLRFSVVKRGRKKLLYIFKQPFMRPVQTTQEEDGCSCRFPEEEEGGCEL

B1: murine anti-CD137 antibody BBK2 (BBK2-mIgG1) (antibody, V domains shown)
VH: QVQLQQPGAELVRPGASVKLSCKASGYTFTSYWINWVKQRPGQGLEWIGNIYPSDSYTNYNQKFKDKATLTVDKSSNTVYMQLNSPTSEDSAVYYCTRNGVEGYPHYYAMEYWGQGTSVTVSS
VL: DIQMTQTTSALSASLGDRVTIGCRASQDLSNHLYWYQQKPDGTVKLLIYYTSRLHSGVPSRFSGSGSGTDYSLTIRNLEQEDVATYFCQQGYTLPYTFGGGTKLEIK
notes: Mouse monoclonal IgG1, kappa (Thermo Fisher); also called BBK-mIgG1; murine BBK2
Take B1: the EC50 in experiment [1] was determined as 0.035 nM; in experiment [2], 35 µM.
